In patent US20240401071A1:

Molecular target: Rubisco activase (Arabidopsis thaliana) (UniProt P10896)
Experiment: GFP-bead immunoprecipitation of PRL-1-eGFP from Arabidopsis leaves, mass spectrometry (IPMS); interaction direct or indirect

Sequence of UniProt P10896 (P10896 59-474 limits assumed): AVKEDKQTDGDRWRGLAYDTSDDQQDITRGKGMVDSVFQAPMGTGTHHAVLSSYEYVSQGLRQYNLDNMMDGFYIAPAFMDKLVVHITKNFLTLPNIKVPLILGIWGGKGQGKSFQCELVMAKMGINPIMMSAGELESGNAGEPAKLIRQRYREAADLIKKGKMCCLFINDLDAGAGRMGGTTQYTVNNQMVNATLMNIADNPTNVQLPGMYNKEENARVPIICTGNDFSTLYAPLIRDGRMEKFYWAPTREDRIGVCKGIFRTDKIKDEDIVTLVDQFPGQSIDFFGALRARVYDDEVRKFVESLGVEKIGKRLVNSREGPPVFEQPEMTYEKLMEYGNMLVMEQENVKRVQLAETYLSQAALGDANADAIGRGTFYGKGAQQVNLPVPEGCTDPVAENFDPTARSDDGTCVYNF

## PRL-1-eGFP (C-terminal GFP fusion with PRL-1, ribulose bisphosphate carboxylase/oxygenase large subunit-related, Potri.012G062600)
  fold abundance in the dark versus light (co-precipitated protein): 4 fold
